Assay results from patent US20220025070A1 (Novartis, published 2022).
Positions count from the first letter of the chain named.

B1: anti-NOV1401 Fab IDT1 (parental, first generation) (Fab, V domains shown)
VH: QVQLLESGGGLVQPGGSLRLSCAASGFTFSDYAMSWVRQAPGKGLEWVSVIDYSSSNTYYADSVKGRFTISRDNSKNTLYLQMNSLRAEDTAVYYCAREGYSYRSIRFDYWGQGTLVTVSS
VL: DIQMTQSPSSLSASVGDRVTITCRASQSISSNLNWYQQKPGKAPKLLIYAASNLQSGVPSRFSGSGSGTDFTLTISSLQPEDFATYYCLQFDHTPFTFGQGTKVEIKR
notes: also called parental Fab; parental antibody IDT1
B2: anti-NOV1401 Fab IDT1C, mammalian format (HC1 + LC1) (Fab, V domains shown)
VH: B1 VH with V50T, D52A, S54V, S55G, S56A, N57P, Y59H
VL: B1 VL
B3: anti-NOV1401 Fab IDT1D (HC1 + LC2) (Fab, V domains shown)
VH: B1 VH with V50T, D52A, S54V, S55G, S56A, N57P, Y59H
VL: B1 VL with F91Y, D92Y, T94L, F96Y
notes: Cross-clone: heavy chain of IDT1C with light chain of IDT1A; expressed in 293 HEK cells; also called 1DT1D
B4: anti-NOV1401 Fab IDT1E (HC2 + LC2) (Fab, V domains shown)
VH: B1 VH with V50T, D52S, S54L, S55G, S56Q, N57E, T58K, Y59H
VL: B1 VL with F91Y, D92Y, T94L, F96Y
notes: Cross-clone: heavy chain of IDT1B with light chain of IDT1A; expressed in 293 HEK cells
B5: anti-FXI/FXIa antibody NOV1401 (antibody, human IgG1, lambda, V domains shown)
VH: QVQLLESGGGLVQPGGSLRLSCAASGFTFSTAAMSWVRQAPGKGLEWVSGISGSGSSTYYADSVKGRFTISRDNSKNTLYLQMNSLRAEDTAVYYCARELSYLYSGYYFDYWGQGTLVTVSS
VL: QSVLTQPPSASGTPGQRVTISCSGSSSNIGSNDVSWYQQLPGTAPKLLIYKNYNRPSGVPDRFSGSKSGTSASLAISGLQSEDEADYYCSAWDQRQFDVVFGGGTKLTVLG
notes: Captured through Fc in Octet, free in solution in SET (biotinylated NOV1401 used only on the detection plate), amine-coupled in SPR; also called anti-Factor XI antibody NOV1401; target antibody
B6: anti-NOV1401 Fab IDT1A, E. coli format (Fab, V domains shown)
VH: B1 VH with Q1E
VL: B1 VL with F91Y, D92Y, T94L, F96Y
B7: anti-NOV1401 Fab IDT1B, E. coli format (Fab, V domains shown)
VH: B1 VH with Q1E, V50T, D52S, S54L, S55G, S56Q, N57E, T58K, Y59H
VL: B1 VL

Tests used:
[1] = biological target: B5; test: solution equilibrium titration (SET), constant Fab with titrated NOV1401, RT, 1:1 fit, average
Procedure: (§1) 14 serial 2-fold dilutions of NOV1401 (from 0.1 pM to 1 nM) were prepared in assay buffer (DPBS (Life Technologies) containing 0.5% BSA and 0.02% Tween-20), and a constant concentration of anti-NOV1401 Fab was added (10 pM, 20 pM or 40 pM). A volume of 60 μl/well of each NOV1401-anti-NOV1401 mix was dispensed in triplicates to a 384-well polypropylene microtiter plate (polypropylene MTP: Greiner, Cat. #781280). Assay buffer served as a negative control and a sample containing only anti-NOV1401 served as a positive control (Bmax). The plate was sealed and incubated overnight (o/n, at least 20 h) at room temperature (RT) on a shaker. A 384-well streptavidin (SA) plate from Life Technologies (Cat. #15505) was coated with 30 μl/well of Biotin-NOV1401 diluted in assay buffer for 2 h at RT on a shaker, then washed three times with wash buffer (PBS containing 0.05% Tween 20). After that 30 μl/well of the equilibrated NOV1401-anti-NOV1401 mix was transferred from the polypropylene MTP (Greiner) to the coated SA plate and incubated for 30 min at RT on a shaker. After an additional wash step, 30 μl/well anti-human Kappa LC-HRP detection antibody (BETHYL, Cat. #A80-115P; 0.05 μg/ml diluted in assay buffer) was added to each well and incubated for 60 min at RT on a shaker. The SA plate was washed, and 30 μl/well LumiGLO read buffer (KPL, Cat. #54-61-01; LumiGLO Peroxidase Chemiluminescent Substrate) was added and incubated for 1 min at RT. RLU signal was measured by the SPECTRAMAXM5 (Molecular Devices, Sunnyvale, Calif. USA).
(§2) All measurements were performed as triplicates and average RLU signals were calculated. Data were baseline-adjusted by subtracting the value for the lowest concentration from all data points and plotted against the corresponding NOV1401 concentration. The KD was determined by non-linear curve fitting using a 1:1 fit model as shown in Equation (according to Haenel et al., 2005, Anal Biochem. 339(1):182-4):
(§3) KD and Bₘₐₓ were set as variables to be fitted by GraphPad Prism 7.03.

[2] = biological target: B5; test: SPR (ProteOn XPR36), NOV1401 amine-coupled, Fab as analyte, 25 C, Langmuir 1:1
Procedure: SPR binding experiments were performed on a ProteOn XPR36 instrument (Bio-Rad Laboratories, Inc.) in PBS/T buffer (50 mM phosphate, 150 mM NaCl, pH 7.4, 0.05% v/v Tween-20) at 25° C. NOV1401 (‘Ligand’) was immobilized onto an activated ProteOn GLC sensor chip (Bio-Rad Laboratories, Inc.) using standard amine coupling procedures as described by the manufacturer. Briefly, NOV1401 was injected at a concentration of […] in 20 mM sodium acetate, pH 5.0 and at a flow rate of 30 μl/min for 10 min. Unreacted groups were blocked by injecting 1 M ethanolamine.
For kinetic studies anti-NOV1401 Fabs (‘Analytes’) were diluted in PBS/T buffer to generate a dilution series with concentrations ranging from 0.125-4 nM. Fabs were injected onto surfaces with immobilized NOV1401 at a flow rate of 100 μL/min and sensorgrams were recorded for association and dissociation times of 220 s and 1800 s, respectively. Blank surfaces were used for background corrections. There was no need to regenerate surfaces since the ProteOn protein interaction array system allows to run up to six binding experiments on an identical surface in parallel.
Data processing and analysis including kₒₙ, koff, and KD determination were performed with the ProteOn Managerrm software version 3.1.0.6. Sensorgrams were fitted by applying a Langmuir 1:1 binding model (Rmax set at global) and dissociation constants were calculated from kₒₙ and koff.

[3] = biological target: B5; test: solution equilibrium titration (SET), 1:1 fit, average KD printed in the panel
Procedure: as §1, with “A” for “14 serial 2-fold dilutions of NOV1401 (from 0.1 pM to 1 nM) were prepared in assay buffer (DPBS (Life Technologies) containing 0.5% BSA and 0.02% Tween-20), and a constant concentration of anti-NOV1401 Fab was added (10 pM, 20 pM or 40 pM). A”
as §2, §3

[4] = biological target: B5; test: cell-based or functional assay
[5] = biological target: B4; test: SET: NOV1401 titrated against a constant Fab concentration in solution, free Fab captured on a biotin-NOV1401 streptavidin plate and detected with anti-human kappa-HRP
Procedure: as §1, §3

[6] = biological target: B2; test: as above
Procedure: as §1, §3

[7] = biological target: B3; test: as above
Procedure: as §1, §3

[8] = biological target: B5; test: Octet bio-layer interferometry, NOV1401 captured on anti-human IgG Fc (AHC) sensors, Fab at 25-400 nM in solution
Procedure: Affinity assessments were performed via Bio-Layer Interferometry technology. Anti-Human IgG Fc Capture (AHC) biosensors (Fortebio, Ref. 18-5060) were used to capture NOV1401. […] Buffer (Fortebio, Ref. 18-5032) alone was used for background (0 nM) determination. Fab association and dissociation were each recorded by measuring the change in layer thickness (in nanometers, nm) with time for 800 s each, all under computer control.

Binder | Kd [1] [pM] | kon [2] [M⁻¹ s⁻¹] | Kd [3] [pM] | aPTT reversal, NOV1401/anti-NOV1401 ratio (n/n) 1/3 [4] [%] | aPTT reversal, NOV1401/anti-NOV1401 ratio (n/n) 1/9 [4] [%] | aPTT reversal, NOV1401/anti-NOV1401 ratio (n/n) 1/30 [4] [%] | also measured
B1 | 110 | 550000 | – | – | – | – | Kd [2]: 440 pM; koff [2]: 0.00024 s⁻¹
B2 | 9.6 | 250000 | 9.6 | 79 | 80 | 78 | –
B3 | – | 440000 | 2.5 | 63 | 72 | 78 | –
B4 | 2.5 | 690000 | 7 | 72 | 84 | 83 | –
B5 | – | – | – | – | – | – | IC50 (read off the curve) [5]: ~10 pM; IC50 (read off the curve) [6]: 10 to 20 pM; IC50 (read off the curve) [7]: ~20 pM
B6 | – | – | – | – | – | – | binding result [8]: binds
B7 | – | – | – | – | – | – | binding result [8]: binds
